pKi: −log10 of the molar value. Like-named read-outs stand apart in the source and are kept apart here.
What was measured:
[1] = biological target: MOP receptor stably expressed in CHO-K1 cells (plasma membranes) (UniProt P35372); assay: radioligand binding
[2] = biological target: MOP receptor stably expressed in CHO-K1 cells (plasma membranes) (UniProt P35372); assay: radioligand binding; remark: listed apart in the source

Sequence of UniProt P35372 (P35372 whole entry): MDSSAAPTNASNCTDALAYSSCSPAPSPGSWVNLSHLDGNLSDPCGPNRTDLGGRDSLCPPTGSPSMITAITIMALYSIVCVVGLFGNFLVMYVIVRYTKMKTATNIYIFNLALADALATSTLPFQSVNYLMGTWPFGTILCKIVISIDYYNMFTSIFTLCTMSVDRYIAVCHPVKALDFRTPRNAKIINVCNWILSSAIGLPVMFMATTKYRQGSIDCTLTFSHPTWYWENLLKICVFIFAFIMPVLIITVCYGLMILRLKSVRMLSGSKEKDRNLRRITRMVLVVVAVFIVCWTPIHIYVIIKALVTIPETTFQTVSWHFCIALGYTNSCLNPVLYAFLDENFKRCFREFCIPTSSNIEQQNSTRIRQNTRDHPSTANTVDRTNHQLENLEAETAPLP

Work on “DAMGO, [D-Ala^2, NMePHe^4, Gly^5-ol]enkephalin (peptide)” yielded a pKi [1] of 7.96 and a pKi [2] of 8.17.

Reference: paper PMC2650857
